{"source": "paper PMC8969154", "about": "“Deglutarylation of glutaryl-CoA dehydrogenase by deacylating enzyme SIRT5 promotes lysine oxidation in mice” (The Journal of Biological Chemistry, 2022)", "key": {"[1]": {"molecular_target": "the molecule itself", "experiment": "native gel or EMSA; BN-PAGE (NativePAGE 4-16% Bis-Tris) of liver mitochondria solubilised in 2% n-dodecyl-β-D-maltoside, 0.5% G-250; immunoblot for GCDH; SIRT5WT and SIRT5KO mice, fed or 24 h fasted; GCDHKO mitochondria as control for the band"}, "[2]": {"molecular_target": "the molecule itself", "experiment": "SEC; Superdex 200 Increase 10/300 GL, 25 mM Hepes pH 7.8, 30 mM NaCl, 0.75 ml/min; column calibrated with standard proteins; comparison of unmodified and modified GCDH told as data not shown"}}}
{"protein": "glutaryl-CoA dehydrogenase (GCDH), endogenous, mouse liver mitochondria (enzyme, mouse (endogenous in liver mitochondria), UniProt Q60759 45-438, looked up, glutaryl-CoA dehydrogenase, mouse, endogenous in liver mitochondria of SIRT5WT and SIRT5KO mice (GCDHKO mitochondria used to identify the band); Glutarylation state differs with genotype and feeding state (higher in starved SIRT5KO liver); also called GCDH tetramer; source: endogenous, mouse liver mitochondria solubilised in 2% n-dodecyl-β-D-maltoside) RPVFDWKDPLILEEQLTADEKLIRDTFRNYCQERLMSRILLANRNEVFHRDIVYEMGELGVLGPTIKGYGCAGVSSVAYGLLTRELERVDSGYRSMMSVQSSLVMHPIYTYGSEEQRQKYLPGLAKGELLGCFGLTEPNHGSDPGGMETRARHNPSNQSYTLSGTKTWITNSPVADLFIVWARCEDNCIRGFILEKGMRGLSAPRIEGKFSLRASATGMIIMDSVEVPEENVLPNVSSLAGPFGCLNTARYGITWGVLGAAEFCLHTARQYALDRIQFGVPLARNQLVQKKLADMLTEITLGLHACLQLGRLKDQDKATPEMVSMLKRNNCGKALDIARQARDILGGNGISDEYHVIRHAMNLEAVNTYEGTHDIHALILGRAITGIQAFTVGK", "values": [{"measurement": "stoichiometry N", "setting": "[1]", "result": 4}]}
{"protein": "human recombinant GCDH protein (hGCDH-6XHIS), unmodified (enzyme, UniProt Q92947 45-438, looked up, hGCDH-6XHIS 'modified from UniProtKB - Q92947'; printed residue numbers count on the full-length human GCDH protein; also called recombinant human GCDH; unmodified GCDH) RPEFDWQDPLVLEEQLTTDEILIRDTFRTYCQERLMPRILLANRNEVFHREIISEMGELGVLGPTIKGYGCAGVSSVAYGLLARELERVDSGYRSAMSVQSSLVMHPIYAYGSEEQRQKYLPQLAKGELLGCFGLTEPNSGSDPSSMETRAHYNSSNKSYTLNGTKTWITNSPMADLFVVWARCEDGCIRGFLLEKGMRGLSAPRIQGKFSLRASATGMIIMDGVEVPEENVLPGASSLGGPFGCLNNARYGIAWGVLGASEFCLHTARQYALDRMQFGVPLARNQLIQKKLADMLTEITLGLHACLQLGRLKDQDKAAPEMVSLLKRNNCGKALDIARQARDMLGGNGISDEYHVIRHAMNLEAVNTYEGTHDIHALILGRAITGIQAFTASK", "values": [{"measurement": "stoichiometry N", "setting": "[2]", "result": 4}]}
{"protein": "chemically glutarylated human recombinant GCDH (glutaryl-GCDH) (enzyme, UniProt Q92947 45-438, looked up, glutaryl-lysine by chemical glutarylation: 10 sites found; heavily glutarylated K163, K170, K202, K240, K253, K357, K371, K377 (numbers of full-length human GCDH), as the chain of m2, chemically glutarylated; printed residue numbers count on the full-length human GCDH protein; also called glutarylated GCDH; modified GCDH) RPEFDWQDPLVLEEQLTTDEILIRDTFRTYCQERLMPRILLANRNEVFHREIISEMGELGVLGPTIKGYGCAGVSSVAYGLLARELERVDSGYRSAMSVQSSLVMHPIYAYGSEEQRQKYLPQLAKGELLGCFGLTEPNSGSDPSSMETRAHYNSSNKSYTLNGTKTWITNSPMADLFVVWARCEDGCIRGFLLEKGMRGLSAPRIQGKFSLRASATGMIIMDGVEVPEENVLPGASSLGGPFGCLNNARYGIAWGVLGASEFCLHTARQYALDRMQFGVPLARNQLIQKKLADMLTEITLGLHACLQLGRLKDQDKAAPEMVSLLKRNNCGKALDIARQARDMLGGNGISDEYHVIRHAMNLEAVNTYEGTHDIHALILGRAITGIQAFTASK", "values": [{"measurement": "stoichiometry N", "setting": "[2]", "result": 4}]}
{"protein": "chemically succinylated human recombinant GCDH (succinyl-GCDH) (enzyme, UniProt Q92947 45-438, looked up, succinyl-lysine by chemical succinylation: 11 sites found (shown in Fig. S3D, not given), as the chain of m2, chemically succinylated; printed residue numbers count on the full-length human GCDH protein; also called succinylated GCDH; modified GCDH) RPEFDWQDPLVLEEQLTTDEILIRDTFRTYCQERLMPRILLANRNEVFHREIISEMGELGVLGPTIKGYGCAGVSSVAYGLLARELERVDSGYRSAMSVQSSLVMHPIYAYGSEEQRQKYLPQLAKGELLGCFGLTEPNSGSDPSSMETRAHYNSSNKSYTLNGTKTWITNSPMADLFVVWARCEDGCIRGFLLEKGMRGLSAPRIQGKFSLRASATGMIIMDGVEVPEENVLPGASSLGGPFGCLNNARYGIAWGVLGASEFCLHTARQYALDRMQFGVPLARNQLIQKKLADMLTEITLGLHACLQLGRLKDQDKAAPEMVSLLKRNNCGKALDIARQARDMLGGNGISDEYHVIRHAMNLEAVNTYEGTHDIHALILGRAITGIQAFTASK", "values": [{"measurement": "stoichiometry N", "setting": "[2]", "result": 4}]}
